{
  "source": "paper PMC4797271",
  "about": "“The quorum-sensing regulator ComA from Bacillus subtilis activates transcription using topologically distinct DNA motifs”",
  "molecular_target": "T1, ComA (Bacillus subtilis, UniProt P14204 1-214)",
  "T1 sequence": "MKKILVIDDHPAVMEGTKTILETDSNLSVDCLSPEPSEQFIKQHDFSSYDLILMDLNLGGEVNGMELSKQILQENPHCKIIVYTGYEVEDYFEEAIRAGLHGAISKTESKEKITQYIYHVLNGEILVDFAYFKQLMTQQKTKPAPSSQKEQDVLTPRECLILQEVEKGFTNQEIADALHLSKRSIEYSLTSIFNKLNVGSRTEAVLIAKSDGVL",
  "experiment": "EMSA; multiple complexes; EMSA: 10 mM HEPES pH 7.6, 2 mM MgCl2, 0.1 mM EDTA, 200 mM KCl, 5 mM DTT, 10% glycerol; 10 ng DNA in 15 ul, 20 min, room temperature",
  "conditions": "protein: recombinant; tags: N-terminal His6 (from expression primer); chain copies: 2; label: 5' biotin on strand 1; blunt",
  "data": [
    {"binder": "Ppel DR cluster (DR1-DR3) (dsDNA) DNA 1: CGGCCTTTTGGTTTTTTTGCGGTCTTTGCGGTGGGATTTTGCAGAAT DNA 2: ATTCTGCAAAATCCCACCGCAAAGACCGCAAAAAAACCAAAAGGCCG", "values": [
      {"measurement": "binding result", "value": "binds"}
    ]}
  ]
}
